B1: TOR1AIP2 (parent)
chain: YKYCDHENAAFKDVALVLTVLLEE
B2: SLC19A2 (parent)
chain: FASLRPSEPFLTPYLLGPDKNLTE

Variants of: B1
Assay: protein stability index of a GFP-peptide fusion (GPS, HEK-293T) (PSI 1-6); higher = more stable
Details: c terminus: a fixed tail appended
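Also: lentivirally expressed fusions sorted by FACS into six bins by GFP to DsRed ratio, PSI derived from sequencing read proportions per bin multiplied by bin number.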

Protein stability index of substitutions, site by site:
V14: H 1.4, L 4.94, K 2.12, A 2.48, C 1.65, E 1.57, I 2.17, T 1, D 1.46, P 1.88, R 1.54
L18: K 3.17, H 2.77, A 1.91, C 1.6, P 3.09, T 1.96, I 4.54, Y 1.43, S 3.57, D 4.76, Q 3.16, N 3.26, F 2, R 2.16, G 3.58, E 3.93
L21: T 4.25, C 1.47, P 1.73, I 2.99, G 1.05, S 1.5, D 2.29, W 2.84, M 2.03, Q 1.73
D13: C 2.1, L 3.1, G 1.75, E 2.46, Q 2.66, Y 4.52, F 2.83, T 2.09, S 2.91
Y3: A 3.02, P 3.07, V 1.83, L 2.89, S 2.41, C 1.51, D 2.78
K2: M 1.96, L 2.81, W 1.98, D 2.03, Y 2.95, S 2.14, N 1.99
L22: R 2.7, H 2.53, S 1.12, Q 1, A 3.63, Y 3.23, D 2.07, N 3.49
Y1: P 1.71, H 1.04, C 2.66, K 2.68, L 2.17, D 1.03, R 2.28, N 2.13, T 2.48
F11: I 1.07, C 1.03, N 1.38, T 1.49, Q 2.6, G 3.68, K 1.2, A 2.73, Y 2.67, H 2.44, S 2.04
T19: K 4.43, L 3.88, M 2.87, N 2.25, D 1.3, P 1.74, F 2.68, C 5.95, H 1.67, R 4.55
A10: S 1.98, P 1.16, W 3.86, Y 3.38, K 3.02, I 2.35, M 1.93, G 2.42, R 1.01, L 2.83
A9: C 4.55, I 3.88, D 1.4, Q 3.72, E 1.75, W 3.05, N 3.72
A15: G 3.58, T 3.21, E 1, S 2.69, R 2.8, I 1.96, Q 2.58, P 2.05
L16: W 3.88, K 2.72, E 1.51, S 2.2, N 2.88, T 1.5, H 1.9, R 1.4, P 2.36, C 1.47
E24: I 3.78, F 3.27, R 3.2, S 3.26, N 3.74, K 2.19, D 2.86, H 3.71, Y 2.58, A 2.84
V17: Y 3.19, W 2.31, S 3.6, G 2.05, P 3.33, D 2.23, K 1.89, N 2.3, M 1.94, E 2.51, Q 1.84, A 3.79, R 1.73, F 2.66
N8: R 4.51, S 2.9, E 1.56, Y 2.07, M 3.45, Q 2.7, V 1.81
C4: D 1.05, G 1.35
K12: Y 2.97, D 1.81, A 3.1, Q 3.33, C 4.02
D5: E 3.08, N 2.94, P 3.2, L 2.43, S 2.61, R 3.8, Y 2.4
E23: H 2.89, C 4.77, L 5.46, N 2.26, P 4, A 3.33, I 2.81, Q 2.07
V20: Q 1.56, R 2.03, A 1.06, H 1.46, N 2.29, M 4.6, S 1.41, E 1.73, K 2.03, C 2.82, G 2.83, T 2.03, P 2.23, D 2.21, Y 3.45
E7: C 4.53, S 2.31, R 2.5, L 2.71, Q 2.52, N 3.84, P 3.94, I 3.39
H6: Q 3.06, I 1.05, P 2, G 2.26, L 2.49, V 2.57, C 2.09

Variants of: B2
Assay: as above
Details: c terminus: a fixed tail appended

Protein stability index of substitutions, site by site:
L4: F 1.93, C 1.61, T 2.23, V 1.86, I 2.44
S7: I 1.5, Q 1.76, C 2.28, R 1.71, H 2.03, N 1.9, T 1.75
T12: G 2.35, D 1.97, S 1.93, E 3.47, Y 2.24, M 1.93, A 1.79, C 2.1
K20: Q 2.05, T 1.45
D19: W 3.08, N 1.46, K 1.58
F1: D 4.38, C 2.8, M 3.65, P 3.64, L 2.93, N 3.81
S3: H 1.87, Q 2.61, P 2.43, T 2.83
E24: A 1.89, I 2.1, G 2.15, K 1.96, F 2.45, W 2.43
N21: V 2.51, S 1.47, K 1.6, F 1.67, T 1.56
E8: N 2.3, A 1.49, P 2.12, S 1.98, H 1.66, V 2.14, F 1.78, W 2.48, D 1.63
P9: A 2.27
F10: G 2.3, W 2.88, K 2.72
L15: Q 1.76, S 1.79, A 1.91
T23: R 1.42, I 1.58, N 1.84, E 2.02, A 2.24, P 2.31
P18: G 1.51, R 1.55, A 1.65, S 1.87, Q 2
L16: S 2.56, A 2.31, E 2.21
R5: Y 2.39, D 1.73, S 2.07
P13: V 2.02, H 1.76, N 1.86
Y14: V 2.22, W 1.46, D 2.49, F 2.38, K 2.42
A2: E 3.63, R 3.08
P6: R 2.12, Q 2.16, C 1.99, S 1.78
G17: F 2.15, P 2.62, S 2.41
L11: P 2.03, D 2.29, W 3.29, H 2.03
L22: M 1.59, H 2.16, I 1.86, Q 1.99
